Experimental data published in US20060193771A1 (US Dept. of Health and Human Services, published 2006).

T1: human CD30, native, expressed on cells (human)
T1 construct: also called native CD30; CD30 on L540, L428, A431/CD30, Karpas299, SUDHL-1 and other CD30-positive cells
T1 chain: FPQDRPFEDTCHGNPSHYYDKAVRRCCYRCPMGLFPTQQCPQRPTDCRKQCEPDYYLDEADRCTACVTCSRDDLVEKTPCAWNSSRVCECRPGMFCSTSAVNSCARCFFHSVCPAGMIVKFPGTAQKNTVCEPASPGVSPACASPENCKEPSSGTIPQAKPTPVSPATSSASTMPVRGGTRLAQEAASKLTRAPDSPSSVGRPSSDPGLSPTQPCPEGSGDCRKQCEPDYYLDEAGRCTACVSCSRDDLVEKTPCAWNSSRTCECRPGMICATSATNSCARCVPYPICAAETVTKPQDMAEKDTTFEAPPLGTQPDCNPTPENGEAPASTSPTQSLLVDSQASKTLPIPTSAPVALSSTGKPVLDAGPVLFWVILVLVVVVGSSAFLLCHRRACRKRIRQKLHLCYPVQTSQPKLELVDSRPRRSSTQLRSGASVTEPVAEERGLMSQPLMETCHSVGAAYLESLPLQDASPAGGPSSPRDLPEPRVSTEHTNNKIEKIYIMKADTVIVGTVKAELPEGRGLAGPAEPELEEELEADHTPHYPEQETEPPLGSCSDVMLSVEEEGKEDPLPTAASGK

T2: CD30-Fc (human)
T2 construct: also called extracellular domain of CD30 fused with human IgG Fc
T2 chain: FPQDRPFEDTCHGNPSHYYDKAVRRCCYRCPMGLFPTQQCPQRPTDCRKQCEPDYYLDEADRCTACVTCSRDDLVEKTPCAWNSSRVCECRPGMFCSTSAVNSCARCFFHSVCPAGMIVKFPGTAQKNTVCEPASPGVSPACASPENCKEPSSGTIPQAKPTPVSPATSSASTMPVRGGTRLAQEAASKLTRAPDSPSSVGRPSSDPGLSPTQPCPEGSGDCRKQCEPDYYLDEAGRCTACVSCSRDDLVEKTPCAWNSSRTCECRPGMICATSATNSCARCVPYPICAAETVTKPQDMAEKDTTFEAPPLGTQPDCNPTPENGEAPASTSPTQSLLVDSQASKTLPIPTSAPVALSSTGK

T3: recombinant soluble CD30 (sCD30) produced in E. coli (human)
T3 construct: also called soluble CD30 made in E. coli; extracellular domain of CD30 with His-tag
T3 chain: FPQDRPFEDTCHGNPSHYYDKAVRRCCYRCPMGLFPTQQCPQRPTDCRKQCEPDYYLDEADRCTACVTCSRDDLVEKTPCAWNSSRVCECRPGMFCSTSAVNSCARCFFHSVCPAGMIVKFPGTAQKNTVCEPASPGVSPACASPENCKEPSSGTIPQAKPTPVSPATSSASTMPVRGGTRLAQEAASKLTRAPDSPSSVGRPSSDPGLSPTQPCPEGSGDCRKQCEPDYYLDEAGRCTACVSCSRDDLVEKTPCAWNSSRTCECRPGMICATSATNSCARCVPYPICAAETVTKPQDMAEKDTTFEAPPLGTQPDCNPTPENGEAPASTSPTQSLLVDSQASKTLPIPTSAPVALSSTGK


Assays:
[1] = target: T1, human CD30, native, expressed on cells; assay: competitive FACS on L540 cells, unlabeled MAb 2.5 µg/ml; competitor: biotin-T25
Procedure: (§1) These MAbs were further characterized for their topographical epitopes by a competitive binding assay using FACS analysis. […] Some of the MAbs were biotinylated as the indicators and incubated with L540 cells in the presence of various concentrations of unlabeled MAbs as the competitors.

[2] = target: T1, human CD30, native, expressed on cells; assay: FACS, L428 cells, MAb 5 µg/ml, control HeFi-I
Procedure: (§2) FACS Analysis. FACS analysis was performed to measure the binding of the MAbs or immunotoxins to native CD30 expressed on various cell lines. […] After incubation for 1 h at 4° C., the cells were washed twice with the same buffer and incubated with FITC-labeled goat mouse IgG (BioSource). After washing, the cells were suspended in 1 ml of the buffer, and the fluorescence associated with the live cells was measured using a FACS Calibur flow cytometer (Beckman Coulter, Fullerton, Calif.).
(§3) The binding activity of the MAbs to native CD30 on cells was measured.

[3] = target: T1, human CD30, native, expressed on cells; assay: FACS, L540 cells, MAb 5 µg/ml, control HeFi-I
Procedure: as §2, §3

CD30-Fc [4] = target: T2, CD30-Fc; assay: ELISA using CD30-Fc (equilibrium in solution)
Procedure: (§4) In one type of ELISA (CD30-Fc ELISA), microtiter plates were coated with 25 ng/well of CD30-Fc. Culture supernatants of hybridoma were added to the coated wells, and bound MAbs were detected with HRP-labeled rat anti-mouse kappa chain monoclonal antibody. A different format of ELISA. Ig-trap ELISA, was also carried out. MAbs were captured by anti-mouse IgG coated on the plates, and then reacted with various concentrations of CD30-Fc in solution. The bound CD30-Fc was detected with HRP-labeled goat anti-human Fc antibody.
(§5) Determination of affinity: Each MAb was titered in the CD30-Fc ELISA described above and an appropriate dilution for each MAb was selected from the liner range of the titration curves. […] The free MAb concentration in each equilibrium reaction was measured by the same ELISA using standard curves. No re-equilibrium occurred during the ELISA because of the small amounts of coated CD30-Fc and the short time of incubation. The CD30-Fc concentration giving half free MAb was the Kd.

[5] = target: T1, human CD30, native, expressed on cells; assay: competitive FACS on L540 cells, unlabeled MAb 2.5 µg/ml; competitor: biotin-T14
Procedure: as §1

[6] = target: T3, recombinant soluble CD30 (sCD30) …; assay: indirect ELISA, sCD30 coated
Procedure: (§6) ELISA. The binding of anti-CD30 MAbs to sCD30 and CD30-Fc was assayed by indirect ELISAs. Microtiter plates (Costar, Cambridge, Mass.) were coated with 20 ng/well of sCD30 or CD30-Fc in PBS overnight at 4° C. After blocking with 0.5% of BSA in PBS, hybridoma supernatants or purified MAbs were added to the coated wells and incubated for 2 h at room temperature. The bound MAbs were detected with alkaline phosphatase (ALP)-labeled anti-mouse IgG (BioSource, Camarillo, Calif.) and p-nitrophenyl phosphate as the substrate.

CD30-Fc [7] = target: T2, CD30-Fc; assay: affinity of the MAb; ELISA using CD30-Fc
Procedure: as §4, §5

[8] = target: T1, human CD30, native, expressed on cells; assay: competitive FACS on L540 cells, unlabeled MAb 2.5 µg/ml; competitor: biotin-T6
Procedure: as §2, §1

[9] = target: T1, human CD30, native, expressed on cells; assay: competitive FACS on L540 cells, unlabeled MAb 2.5 µg/ml; competitor: biotin-HRS-4
Procedure: as §1

CD30-Fc [10] = target: T2, CD30-Fc; assay: indirect ELISA, CD30-Fc coated
Procedure: as §6

[11] = target: T1, human CD30, native, expressed on cells; assay: competitive FACS on L540 cells, unlabeled MAb 2.5 µg/ml; competitor: biotin-T24
Procedure: as §1

[12] = target: T1, human CD30, native, expressed on cells; assay: competitive FACS on L540 cells, unlabeled MAb 2.5 µg/ml; competitor: biotin-HeFi-I
Procedure: as §1

Binder	inhibition of the binding of biotin-MAb (%) [1]	relative reactivity in FACS (% of control) [2]	relative reactivity in FACS (% of control) [3]	Kd (CD30-Fc [4])	inhibition of the binding of biotin-MAb (%) [5]	titer in ELISA [6]	Kd (CD30-Fc [7])	inhibition of the binding of biotin-MAb (%) [8]	inhibition of the binding of biotin-MAb (%) [9]	titer in ELISA (CD30-Fc [10])	inhibition of the binding of biotin-MAb (%) [11]	inhibition of the binding of biotin-MAb (%) [12]
T24 MAb (antibody, V domains shown) VH: QVQLQQPGAELVRPGASVKLSCKASGYSFTSYWIDWVKQRPGQGLEWIGNIYPSNAYTNYNQKFKDKATLTVDKSSSTAYMQLSSPTSEDSAVYYCTSVLDYFYAMDYWGQGTSVTVSS VL: DIQMTQTTSSLSASLGDRVTISCRASQDISNYLNWYQQKPDGTVKLLIYYTSRLHSGVPSRFSGSGSGTDYSLTISNLEQEDIATYFCQQVNTLPRTFGGGTKLEIKR	97.8%	160 % of control	117 % of control	2.2 nM	16.1%	102 mL/µg	2.2 nM	1.5%	52.2%	179 mL/µg	82.8%	79.8%
T201 MAb (antibody, V domains shown) VH: QVQLKESGPGLVAPSQSLSITCTVSGFSLIDYGVSWVRQPPGKGLEWLGMIWGDGNTDYNSGLKSRLSISKDNSKSQVFLKVNSLQTDDTARYYCARPSTGTLFAYWGQGTLVTVSA VL: EIVLTQSPTTMAASPGERITFTCSASSGISSIYLHWYQQKPGFSPKLLIYRTSNLASGVPPRFSGSGSGTSYSLTIGTMEAEDVATYYCQQGSSIPLTFGAGTKLELKR	–	–	–	–	–	–	8.3 nM	–	–	–	–	–
T405 MAb (antibody, V domains shown) VH: QVQLQQIGAELVRPGASVKLSCKASGYTFNNYWINWVKQRPGQGLEWIGNIYPSDSRSNYNQKFKDKATLTVDKPSSTAYMQLSSPTSEDSAVYYCTLGSYWGQGTLVTVSA VL: not shown	–	–	–	–	–	–	5.7 nM	–	–	–	–	–
T408 MAb (antibody, V domains shown) VH: QVQLQQPGAELVRPGASVKLSCKASGYTFTSYWINWVKQRPGQGLEWIGNIYPSDSYSNYNQKFKDKATLTVDKSSSTAYMQLSSPTSEDSAVYYCTLGSYWGQGTLVTVSA VL: not shown	–	–	–	–	–	–	6.4 nM	–	–	–	–	–
T13 MAb (antibody, V domains shown) VH: QVQLQQSGAELAKPGASVKMSCKASGYTFTTYWMHWVKQRPGQGLEWIGYINPSTGYTDYNEKFKDKATLTADKSSSTAYMQLSSLTSEDSAVYYCVRRGSYDGNPFAYWGQGTLVSVSA VL: DIVMTQSHKFMSTSVGDRVTITCKASQDVSTAVAWYQQKPGHSPKLLIYWASTRHTGVPDRFTGSGSGTDYTLTISSVQVEDLALYYCQQHYSTPFTFGSGTKLEIKR	26.7%	180 % of control	111 % of control	3.1 nM	108%	87.7 mL/µg	3.1 nM	87.4%	82.6%	91.2 mL/µg	40.1%	0%
T420 MAb (antibody, V domains shown) VH: QVQLQQSGAELAKPGASVKMSCKASGYTFTSYWMHWVKQRPGQDLEWIGYINPSTDYTDYNQKFKDKATLTADKSSSTAYMQLSSLTSEDSAVYYCATRHYGSSYGFAYWGQGTLVTVSA VL: DIVMTQSHKFMSTSVGDRVSITCKASQDVSTAVAWYQQKPGQSPKLLIYWASTRHTGVPDRFTGSGSGTDYSLTISSVQAEDLAVYYCQQHYRTPFTFGSGTKLEIKR	–	–	–	1.9 nM	–	–	1.9 nM	–	–	–	–	–
T427 MAb (antibody, V domains shown) VH: QVQLQQPGTELVRPGASVKLSCKASGFSFTSYWMNWVKQRPGQGLEWIGMIHPSDSETRLNQKFKDRATLTVDKSSSTAYMQLSSPTSEDSAVYYCASEMDYYFAMDYWGQGTSVTVSS VL: DIVLTQSPTSLAVSLGQRATISCRASESVDSYGNSFMHWFQQKPGQPPKLLIYRASNLESGIPARFSGSGSWTDFTLTINPVEADDVATYYCQQSNEDPRTFGGGTKLEIKR	–	–	–	–	–	–	0.9 nM	–	–	–	–	–
T6 MAb (antibody, V domains shown) VH: QVQLKESGPGLVTPSQSLSITCTVSGFSLSKYSIHWVRQPPGRGLEWLGMIWGVENTDYNSALKSRLSISKDNSKSQVFLKMNSLQSDDTAMYYCARKDLGLYGMNYWGQGISVTVSA VL: DIVMTQSQKFMSTSVGDRVSVTCKASQNVGTNVAWYQQKPGQSPKALFYSASYRYSGVPDRFIGSGSGTVFTLTISNVQSEDLAEYFCQQYNTYPLTFGSGTKLEIER	25%	140 % of control	111 % of control	13 nM	108%	74.1 mL/µg	13 nM	100%	97.9%	40 mL/µg	3.9%	0%
T105 MAb (antibody, V domains shown) VH: QVTLKESGPGILQPSQTLSLTCSFSGFSLSTSGMGVSWIRQPSGKDLEWLAHIYWDDDKRYNPSLKSRLTISKDTSSNQVFLKITSVDTADTATYYCARRADGLYFYLDVWGAGTTVTVSS VL: DIVMTQSQKFMSTSVGDRVSVTCKASQNVNTNVAWYQQKPGQSPEALIYSASYRYSGVPDRFTGSGSGTDFTLTISNVQSEDLAEYFCQQYNSYPLTFGSGTKLEIKR	–	–	–	4.2 nM	–	–	4.2 nM	–	–	–	–	–
T25 MAb (antibody, V domains shown) VH: QVTLKESGPGILQPSQTLSLTCSFSGFSLNTSGVGVGWIRQPSGKGLEWLAHIWWDDDERYNPVLKSRLTISKDTSSNQVFLKIANVDTADSATYYCVRSMVAWFPYWGRGTLVTVSA VL: DIVMSQSPSSLAVSVGEKFTVNCKSSQSLLYSSNQKNFLAWYQQKPGQSPKLLIYWASTRESGVPDRFIGSGSGTDFTLTISSVKAEDLAVYYCQQHYRYPWTFGGGTKLEIKR	79.8%	80 % of control	27.8 % of control	6.4 nM	-1.3%	135 mL/µg	6.4 nM	1.5%	0%	50 mL/µg	0%	0%
